Measurements as given in patent US20180155451A1 (published 2018).

T1: FcγRIIb (human, UniProt P31994 43-217)
T1 construct: extracellular domain; also called FcgRIIb; 2b
T1 sequence (looked up): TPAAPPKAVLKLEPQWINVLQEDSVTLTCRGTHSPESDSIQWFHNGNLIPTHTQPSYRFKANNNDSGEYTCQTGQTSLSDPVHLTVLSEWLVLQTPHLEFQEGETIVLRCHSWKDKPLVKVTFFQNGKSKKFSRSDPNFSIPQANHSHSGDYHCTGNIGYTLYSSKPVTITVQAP

T2: FcγRIIa H (human, UniProt P12318 34-217)
T2 construct: extracellular domain; also called FcγRIIa type H; 2aH
T2 sequence (looked up): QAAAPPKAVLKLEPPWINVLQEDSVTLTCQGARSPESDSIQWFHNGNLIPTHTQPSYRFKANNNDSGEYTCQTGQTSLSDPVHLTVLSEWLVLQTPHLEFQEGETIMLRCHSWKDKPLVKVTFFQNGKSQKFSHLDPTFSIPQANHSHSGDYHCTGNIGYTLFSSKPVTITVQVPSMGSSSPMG

T3: FcγRIIb (human, UniProt P31994 43-217)
T3 construct: extracellular domain; also called 2b
T3 sequence (looked up): T1 sequence (looked up)

B1: GpH7-A5/GpH7-B3 variant (E269_19Q)/GpL16-k0 (antibody, human IgG1, kappa)
heavy 1: not shown
heavy 2: not shown
light: DIVMTQSPLSLPVTPGEPASISCQASESLVHSNRNTYLHWYLQKPGQSPQLLIYKVSNRFSGVPDRFSGSGSGTDFTLKISRVEAEDVGVYYCSQNTHVPPTFGQGTKVEIERTVAAPSVFIFPPSDEQLKSGTASVVCLLNNFYPREAKVQWKVDNALQSGNSQESVTEQDSKDSTYSLSSTLTLSKADYEKHKVYACEVTHQGLSSPVTKSFNRGEC
notes: IgG1 heterodimer, mutation in the GpH7-B3 chain only; also called He Ab
B2: GpH7-A5/GpH7-B3 variant (G236_11K)/GpL16-k0 (antibody, human IgG1, kappa)
heavy 1: not shown
heavy 2: not shown
light: B1 light
notes: as for B1
B3: GpH7-A5/GpH7-B3 variant (G236_12R)/GpL16-k0 (antibody, human IgG1, kappa)
heavy 1: not shown
heavy 2: not shown
light: B1 light
notes: as for B1
B4: GpH7-A5/GpH7-B3 variant (E269_18N)/GpL16-k0 (antibody, human IgG1, kappa)
heavy 1: not shown
heavy 2: not shown
light: B1 light
notes: as for B1
B5: GpH7-A5/GpH7-B3 variant (G236_06M)/GpL16-k0 (antibody, human IgG1, kappa)
heavy 1: not shown
heavy 2: not shown
light: B1 light
notes: as for B1
B6: GpH7-A5/GpH7-B3 variant (E269_15Y)/GpL16-k0 (antibody, human IgG1, kappa)
heavy 1: not shown
heavy 2: not shown
light: B1 light
notes: as for B1
B7: GpH7-A5/GpH7-B3 variant (G236_07I)/GpL16-k0 (antibody, human IgG1, kappa)
heavy 1: not shown
heavy 2: not shown
light: B1 light
notes: as for B1
B8: GpH7-A5/GpH7-B3 variant (E269_05P)/GpL16-k0 (antibody, human IgG1, kappa)
heavy 1: not shown
heavy 2: not shown
light: B1 light
notes: as for B1
B9: GpH7-A5/GpH7-B3 variant (E269_08L)/GpL16-k0 (antibody, human IgG1, kappa)
heavy 1: not shown
heavy 2: not shown
light: B1 light
notes: as for B1
B10: GpH7-A5/GpH7-B3 variant (E269_06M)/GpL16-k0 (antibody, human IgG1, kappa)
heavy 1: not shown
heavy 2: not shown
light: B1 light
notes: as for B1
B11: GpH7-A5/GpH7-B3 variant P331_07I/GpL16-k0 (antibody, human IgG1, kappa)
heavy 1: not shown
heavy 2: not shown
light: B1 light
notes: heterodimerized IgG1, mutation in one H chain only; also called He Ab
B12: GpH7-A5/GpH7-B3 variant P331_16H/GpL16-k0 (antibody, human IgG1, kappa)
heavy 1: not shown
heavy 2: not shown
light: B1 light
notes: as for B11
B13: GpH7-A5/GpH7-B3 variant P331_04F/GpL16-k0 (antibody, human IgG1, kappa)
heavy 1: not shown
heavy 2: not shown
light: B1 light
notes: as for B11
B14: GpH7-A5/GpH7-B3 variant P331_03V/GpL16-k0 (antibody, human IgG1, kappa)
heavy 1: not shown
heavy 2: not shown
light: B1 light
notes: as for B11
B15: GpH7-A5/GpH7-B3 variant P331_20W/GpL16-k0 (antibody, human IgG1, kappa)
heavy 1: not shown
heavy 2: not shown
light: B1 light
notes: as for B11
B16: GpH7-A5/GpH7-B3 variant P331_06M/GpL16-k0 (antibody, human IgG1, kappa)
heavy 1: not shown
heavy 2: not shown
light: B1 light
notes: as for B11
B17: GpH7-A5/GpH7-B3 variant P331_15Y/GpL16-k0 (antibody, human IgG1, kappa)
heavy 1: not shown
heavy 2: not shown
light: B1 light
notes: as for B11
B18: GpH7-A5/GpH7-B3 variant N325_20W/GpL16-k0 (antibody, human IgG1, kappa)
heavy 1: not shown
heavy 2: not shown
light: B1 light
notes: as for B11
B19: GpH7-A5/GpH7-B3 variant P331_10E/GpL16-k0 (antibody, human IgG1, kappa)
heavy 1: not shown
heavy 2: not shown
light: B1 light
notes: as for B11

These binders were tested against T4, FcγRIa (human, UniProt P12314 16-292) (assay: SPR, captured antibody; relative to GpH7-A5/GpH7-B3/GpL16-k0).
T4 construct: extracellular domain; also called FcgRI; 1a
T4 sequence (P12314 16-292): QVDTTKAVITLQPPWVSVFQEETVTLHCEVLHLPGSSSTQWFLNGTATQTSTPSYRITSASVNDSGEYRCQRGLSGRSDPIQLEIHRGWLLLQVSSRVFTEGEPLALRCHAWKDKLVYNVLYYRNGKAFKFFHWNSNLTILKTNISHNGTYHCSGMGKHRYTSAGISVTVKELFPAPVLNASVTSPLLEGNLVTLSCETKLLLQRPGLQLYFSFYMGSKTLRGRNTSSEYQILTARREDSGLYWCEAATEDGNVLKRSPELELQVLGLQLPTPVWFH

| He/Con_1a | Binder |
| --- | --- |
| 105 relative, HeCon Ab = 100 | B1 |
| 71 relative, HeCon Ab = 100 | B2 |
| 63.1 relative, HeCon Ab = 100 | B3 |
| 102 relative, HeCon Ab = 100 | B4 |
| 96.7 relative, HeCon Ab = 100 | B5 |
| 106 relative, HeCon Ab = 100 | B6 |
| 87.5 relative, HeCon Ab = 100 | B7 |
| 102 relative, HeCon Ab = 100 | B8 |
| 104 relative, HeCon Ab = 100 | B9 |
| 104 relative, HeCon Ab = 100 | B10 |

The binders below were run against T1, FcγRIIb in the same assay as above.

| He/Con_2b | Binder |
| --- | --- |
| 44.3 relative, HeCon Ab = 100 | B1 |
| 49.8 relative, HeCon Ab = 100 | B2 |
| 6.8 relative, HeCon Ab = 100 | B3 |
| 44.8 relative, HeCon Ab = 100 | B4 |
| 45.5 relative, HeCon Ab = 100 | B5 |
| 44.7 relative, HeCon Ab = 100 | B6 |
| 31 relative, HeCon Ab = 100 | B7 |
| 52.6 relative, HeCon Ab = 100 | B8 |
| 42.9 relative, HeCon Ab = 100 | B9 |
| 46.7 relative, HeCon Ab = 100 | B10 |

These binders were tested against T2, FcγRIIa H (assay: SPR (Biacore), relative binding vs GpH7-A5/GpH7-B3/GpL16-k0).
Protocol: (§1) The heterodimerized antibodies He Abs in which one of the H chains was introduced with an alteration were assayed for their binding activities to each activating FcγR and inhibitory FcγR according to the method described in Example 4. […] The activating FcγRs in FIGS. 26, 27, 28, and 29 are FcγRIa, FcγRIIa (R), FcγRIIa (H), and FcγRIIIa, respectively.
(§2) Analysis of interaction between objective antibody and the FcγR was carried out using Biacore T100 (GE Healthcare). HBS-EP+ (GE Healthcare) was used as the running buffer, and the measurement temperature was set to 25° C. Chips produced by immobilizing the antigen peptide by the amine coupling method to a Series S Sencor Chip CM5 (GE Healthcare), or alternatively, chips produced by allowing preliminarily biotinylated antigen peptides to interact with and immobilize onto a Series S Sensor Chip SA (certified) (GE Healthcare) were used. Antibodies of interest were captured onto an antigen peptide-immobilized chip, and allowed to interact to each FcγR diluted with running buffer. To regenerate and repeatedly use the chip, the antibodies captured on the chip were washed off by reacting 10 mM glycine-HCl, pH 1.5.

| He/Con_2aH | Binder |
| --- | --- |
| 77.4 % of control He Ab (=100) | B11 |
| 84.5 % of control He Ab (=100) | B12 |
| 84.7 % of control He Ab (=100) | B13 |
| 82.5 % of control He Ab (=100) | B14 |
| 82.8 % of control He Ab (=100) | B15 |
| 85.1 % of control He Ab (=100) | B16 |
| 86 % of control He Ab (=100) | B17 |
| 47.2 % of control He Ab (=100) | B18 |
| 87.1 % of control He Ab (=100) | B19 |

These binders were tested against T3, FcγRIIb in the same assay as above.
Protocol: as §1, §2

| He/Con_2b | Binder |
| --- | --- |
| 114 % of control He Ab (=100) | B11 |
| 116 % of control He Ab (=100) | B12 |
| 110 % of control He Ab (=100) | B13 |
| 119 % of control He Ab (=100) | B14 |
| 111 % of control He Ab (=100) | B15 |
| 102 % of control He Ab (=100) | B16 |
| 114 % of control He Ab (=100) | B17 |
| 169 % of control He Ab (=100) | B18 |
| 116 % of control He Ab (=100) | B19 |
